In doi:10.1101/464701 (bioRxiv, 2018):

T1: MukB (E. coli SMC protein of MukBEF) (E. coli, UniProt P22523 1-1486)
T1 sequence: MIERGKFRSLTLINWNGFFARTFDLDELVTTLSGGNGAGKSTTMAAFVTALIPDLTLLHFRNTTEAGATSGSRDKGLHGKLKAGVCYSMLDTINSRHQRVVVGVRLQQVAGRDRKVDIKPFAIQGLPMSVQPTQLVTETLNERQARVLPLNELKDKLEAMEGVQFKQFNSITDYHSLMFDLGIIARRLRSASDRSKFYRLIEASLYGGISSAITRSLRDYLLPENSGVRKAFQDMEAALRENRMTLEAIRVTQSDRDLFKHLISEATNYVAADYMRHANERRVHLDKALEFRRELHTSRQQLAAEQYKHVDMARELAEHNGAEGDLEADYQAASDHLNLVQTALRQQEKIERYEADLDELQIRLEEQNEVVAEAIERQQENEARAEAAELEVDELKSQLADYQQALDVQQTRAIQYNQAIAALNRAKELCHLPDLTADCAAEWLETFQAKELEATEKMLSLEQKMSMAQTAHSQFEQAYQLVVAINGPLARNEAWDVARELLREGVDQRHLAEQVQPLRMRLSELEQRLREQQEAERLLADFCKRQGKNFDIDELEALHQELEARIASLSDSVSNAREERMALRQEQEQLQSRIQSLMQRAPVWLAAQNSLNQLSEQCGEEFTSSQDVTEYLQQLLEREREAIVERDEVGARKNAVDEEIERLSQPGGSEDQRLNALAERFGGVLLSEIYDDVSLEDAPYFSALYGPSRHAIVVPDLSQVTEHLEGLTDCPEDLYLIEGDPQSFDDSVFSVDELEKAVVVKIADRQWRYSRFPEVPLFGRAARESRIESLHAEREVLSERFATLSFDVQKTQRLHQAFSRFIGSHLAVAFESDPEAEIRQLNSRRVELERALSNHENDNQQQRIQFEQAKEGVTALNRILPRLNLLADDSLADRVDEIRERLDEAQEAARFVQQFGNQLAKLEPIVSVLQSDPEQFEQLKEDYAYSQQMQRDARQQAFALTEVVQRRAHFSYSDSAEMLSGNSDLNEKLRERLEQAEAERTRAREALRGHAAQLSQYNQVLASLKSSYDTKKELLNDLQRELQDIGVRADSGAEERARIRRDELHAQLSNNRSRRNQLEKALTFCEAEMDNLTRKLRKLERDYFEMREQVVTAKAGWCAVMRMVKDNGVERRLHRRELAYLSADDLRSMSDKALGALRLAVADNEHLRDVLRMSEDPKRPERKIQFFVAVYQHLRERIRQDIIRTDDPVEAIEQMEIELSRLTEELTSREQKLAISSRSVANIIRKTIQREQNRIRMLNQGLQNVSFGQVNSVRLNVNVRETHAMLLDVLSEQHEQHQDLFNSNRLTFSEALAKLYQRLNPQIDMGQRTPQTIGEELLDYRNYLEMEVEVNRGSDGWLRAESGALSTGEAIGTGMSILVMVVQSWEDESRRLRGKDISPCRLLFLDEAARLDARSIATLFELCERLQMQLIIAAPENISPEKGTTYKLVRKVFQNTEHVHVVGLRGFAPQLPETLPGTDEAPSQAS

B1: Scc3 (S. cerevisiae cohesin HAWK protein), recombinant (natural protein)
chain: MTAVRRSTRIRTKSQVIEEDYDDEQNTSAQHVESDKITAKTQHEEEEEQDTGESEESSSEDDYEDQDDDDYVDTATAKRKSRKRKPKSASNTSSKRQKKKPTSAQKSAVSHAPAYHRSKKDQDQYLEIAKDFQPTELFDILSTSEDVSIEELLREWLETYSENRDKFLQEFINLLLNCCGSVARVEDHDVHSNESSNETIGEIQLLFQRQKLHEFYLLISKENKKRKNFKMGPLYQNFAEFMTKLLEVANDLQLLYVESDEDDTQIVTGNLVLDLLTWLSSFSVCKIRCFRYISTLTLYLFQDYLTQQAVNLEKNYLAKLSKQLSLEEKKKRPNNKTLEKLESTIAETQGSKVVIDSIIDNIVKLCFVHRYKDVSDLIRSESMLHLSIWIKNYPEYFLKVTFLKYFGWLLSDNSVSVRLQVTKILPHLIIQNHNSKSTDNSAIRQVFERFKTKILEVAIRDVNLDVRIHSIQVLTEASSLGYLDDSEILIISSLMFDEEFDPFKTSSFNKRSKFLSTVAKFLARVIKEKFDEFIKTHEDLPKEVDGLEVGPVVQVGIFIKILNDSLIYHLKDCAEVDSRTKIRMLTQAAEFLSPYISTHLKTICNLLISDTESNELIQKLQNSANNNSDDEDVDDEELDITPLFPIDRNSTILYLNVFHGLCAGANNPKIQTKDSVKEIVLPLFYDLLNAASIESADILCPLLESFITFSLDDWISIGYETELKKITDKTIKAFMDSTIGNSKVDMKYDIFAKFIHHIHHFEKKELQEKFLNQIATLKIHLKKFLQEKMDPNNSRDDYKDLTCSLYELYINKLTILGRDYPIEVDEELLQLFLNNFVSRIPIMFQDFDDSTAQEINFKMLVLLATWNLEKWREIIEKVRDYENSISKDLRSVWKPIAAIIGRLNTLVISLAATNETFENINSLFYLKWSACTSLMDIIVAIKIFELKLPADATTWRYSMSEQFPFYLHDNASKVLLKIFLYLESLFAKQVDVQLERVADEDANLNDLPETGFFENIETEFLLFTVKLKGLMKLNILDERFASRVALNKEKLGPLFKKIVDDTIMENPEPNKKNIQKAKSNQTQREKAPLQPNSERETDHANTENNDPDIPMTIDLEPIEESSQNNSELAPIEEHPTVVDAIDNSDEITQD
B2: MukF (E. coli kleisin of MukBEF) (natural protein)
chain: MSEFSQTVPELVAWARKNDFSISLPVDRLSFLLAVATLNGERLDGEMSEGELVDAFRHVSDAFEQTSETIGVRANNAINDMVRQRLLNRFTSEQAEGNAIYRLTPLGIGITDYYIRQREFSTLRLSMQLSIVAGELKRAADAAEEGGDEFHWHRNVYAPLKYSVAEIFDSIDLTQRLMDEQQQQVKDDIAQLLNKDWRAAISSCELLLSETSGTLRELQDTLEAAGDKLQANLLRIQDATMTHDDLHFVDRLVFDLQSKLDRIISWGQQSIDLWIGYDRHVHKFIRTAIDMDKNRVFAQRLRQSVQTYFDEPWALTYANADRLLDMRDEEMALRDEEVTGELPEDLEYEEFNEIREQLAAIIEEQLAVYKTRQVPLDLGLVVREYLSQYPRARHFDVARIVIDQAVRLGVAQADFTGLPAKWQPINDYGAKVQAHVIDKY
B3: MukEF complex (E. coli) (complex)
chain 1: MSSTNIEQVMPVKLAQALANPLFPALDSALRSGRHIGLDELDNHAFLMDFQEYLEEFYARYNVELIRAPEGFFYLRPRSTTLIPRSVLSELDMMVGKILCYLYLSPERLANEGIFTQQELYDELLTLADEAKLLKLVNNRSTGSDVDRQKLQEKVRSSLNRLRRLGMVWFMGHDSSKFRITESVFRFGADVRAGDDPREAQRRLIRDGEAMPIENHLQLNDETEENQPDSGEEE
chain 2: B2 chain
B4: Scc2 residues 151-1493 (S. cerevisiae cohesin loader), recombinant (domain or fragment)
chain: SNAGNLSFNDNSSNKKTKTSTGVTMTQANLAEQYLNDLKNILDIVGFDQNSAEIGNIEYWLQLPNKKFVLTTNCLTKLQMTIKNITDNPQLSNSIEITWLLRLLDVMVCNIKFSKSSLKMGLDDSMLRYIALLSTIVLFNIFLLGKNDSNLHRESYIMEPVNFLSDLIESLKILTIEYGSLKIEFDTFQEALELLPKYIRNGPFLDDNVTAKLVYIFSDLLMNNDIEATTNIQFQSFWDNVKRISSDILVSLFGSFDQQRGFIIEELLSHIEKLPTKRIQKKLRKVGNQNIYITDFTFTLMSMLENINCYSFCNQMKDIAPENIDLLKNEYKKQEEFLFNIVEHINDTILERFFKNPSALRYVIDNFVQDLLLLISSPQWPVTEKILSSLLKRLLSVYSPSMQVSANIETICLQLIGNIGSTIFDIKCSTRDHEDNNLIKMINYPETLPHFFKSFEECIAYNETIKCRRSATRFLWNLRLGTILILEEYTKDAKEQIITVDNELKKILEQIKDGGLGPELENREADFSTIKLDYFSILHAFELLNLYDPYLKLILSLLAKDKIKLRSTAIKCLSMLASKDKVILSNPMVKETIHRRLNDSSASVKDAILDLVSINSSYFEFYQQINNNYNDDSIMVRKHVLRINEKMYDETNDIVTKVYVIARILMKIEDEEDNIIDMARLILLNRWILKVHEVLDQPEKLKEISSSVLLVMSRVAIMNEKCSQLFDLFLNFYLLNKEAHSKEAYDKITHVLTILTDFLVQKIVELNSDDTNEKNSIVDKQNFLNLLAKFADSTVSFLTKDHITALYPYMVSDEKSDFHYYILQVFRCTFEKLANFKQKFLYDLETTLLSRLPKMNVREIDEAMPLIWSVATHRHDTARVAKACSSCLSHLHPYINKANNEEAAIVVDGKLQRLIYLSTGFARFCFPKPSNDKIAFLQEGETLYEHITKCLLVLSKDKITHVIRRVAVKNLTKLCGNHPKLFNSRHVLHLLDKEFQSDQLDIKLVILESLYDLFLLEERKSVRNTGVNSTLSSNSILKKKLLKTNRVEFANDGVCSALATRFLDNILQLCLLRDLKNSLVAIRLLKLILKFGYTNPSHSIPTVIALFASTSQYIRHVAYELLEDLFEKYETLVFSSLSRGVTKAIHYSIHTDEKYYYKHDHFLSLLEKLCGTGKKNGPKFFKVLKRIMQSYLDDITDLTSTNSSVQKSIFVLCTNISNITFVSQYDLVSLLKTIDLTTDRLKEVIMDEIGDNVSSLSVSEEKLSGIILIQLSLQDLGTYLLHLYGLRDDVLLLDIVEESELKNKQLPAKKPDISKFSAQLENIEQYSSNGKLLTYFRKHVKDT
B5: MukE (E. coli KITE protein of MukBEF), untagged, from the co-expressed holocomplex (natural protein)
chain: B3 chain 1
B6: MukE (E. coli) made as His6-SUMO-MukE for the MukEF preparation (natural protein)
chain: B3 chain 1

What was measured:
[1] = molecular target: Smc1-Smc3-Scc1 trimer (S. cerevisiae cohesin) (S. cerevisiae, UniProt P32908;P47037;Q12158); experiment: SEC
[2] = molecular target: T1, MukB (E. coli SMC protein of MukBEF); experiment: SEC
[3] = molecular target: B2; experiment: cross-linking
[4] = molecular target: B2; experiment: SEC

Chain of Smc1-Smc3-Scc1 trimer (S. cerevisiae cohesin) (P32908 whole entry, chain 1 of 3): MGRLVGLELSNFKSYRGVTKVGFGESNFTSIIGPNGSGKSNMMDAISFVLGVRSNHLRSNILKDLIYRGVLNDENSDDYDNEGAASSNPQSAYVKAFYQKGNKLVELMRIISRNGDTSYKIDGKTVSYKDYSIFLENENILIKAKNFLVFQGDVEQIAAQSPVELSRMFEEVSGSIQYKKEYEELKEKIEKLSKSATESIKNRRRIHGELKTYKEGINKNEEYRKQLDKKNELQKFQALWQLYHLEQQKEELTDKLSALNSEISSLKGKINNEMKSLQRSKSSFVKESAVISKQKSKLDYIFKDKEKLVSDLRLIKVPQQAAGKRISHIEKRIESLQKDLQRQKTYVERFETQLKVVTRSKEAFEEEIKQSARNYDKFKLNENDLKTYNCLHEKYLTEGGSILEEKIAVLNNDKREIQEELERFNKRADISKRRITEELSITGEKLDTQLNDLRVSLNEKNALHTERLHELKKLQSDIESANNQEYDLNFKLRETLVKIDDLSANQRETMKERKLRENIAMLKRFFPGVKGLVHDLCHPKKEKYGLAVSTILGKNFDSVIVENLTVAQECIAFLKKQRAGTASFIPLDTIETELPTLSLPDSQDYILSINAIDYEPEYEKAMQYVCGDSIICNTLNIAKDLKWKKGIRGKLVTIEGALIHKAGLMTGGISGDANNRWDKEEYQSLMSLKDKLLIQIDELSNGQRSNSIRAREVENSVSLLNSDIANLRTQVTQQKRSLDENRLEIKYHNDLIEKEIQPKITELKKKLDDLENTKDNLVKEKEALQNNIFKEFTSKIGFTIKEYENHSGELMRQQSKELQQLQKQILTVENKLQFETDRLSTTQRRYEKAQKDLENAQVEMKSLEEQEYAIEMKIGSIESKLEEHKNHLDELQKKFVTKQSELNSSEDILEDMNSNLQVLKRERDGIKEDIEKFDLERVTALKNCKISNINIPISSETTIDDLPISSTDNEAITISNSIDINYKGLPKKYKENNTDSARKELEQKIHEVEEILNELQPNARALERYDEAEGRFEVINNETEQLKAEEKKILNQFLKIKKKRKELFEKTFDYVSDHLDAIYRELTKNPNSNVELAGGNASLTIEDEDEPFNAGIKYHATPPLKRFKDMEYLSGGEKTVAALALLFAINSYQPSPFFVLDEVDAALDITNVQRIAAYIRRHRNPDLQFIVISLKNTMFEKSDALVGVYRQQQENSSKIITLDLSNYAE
Chain of Smc1-Smc3-Scc1 trimer (S. cerevisiae cohesin) (P47037 whole entry, chain 2 of 3): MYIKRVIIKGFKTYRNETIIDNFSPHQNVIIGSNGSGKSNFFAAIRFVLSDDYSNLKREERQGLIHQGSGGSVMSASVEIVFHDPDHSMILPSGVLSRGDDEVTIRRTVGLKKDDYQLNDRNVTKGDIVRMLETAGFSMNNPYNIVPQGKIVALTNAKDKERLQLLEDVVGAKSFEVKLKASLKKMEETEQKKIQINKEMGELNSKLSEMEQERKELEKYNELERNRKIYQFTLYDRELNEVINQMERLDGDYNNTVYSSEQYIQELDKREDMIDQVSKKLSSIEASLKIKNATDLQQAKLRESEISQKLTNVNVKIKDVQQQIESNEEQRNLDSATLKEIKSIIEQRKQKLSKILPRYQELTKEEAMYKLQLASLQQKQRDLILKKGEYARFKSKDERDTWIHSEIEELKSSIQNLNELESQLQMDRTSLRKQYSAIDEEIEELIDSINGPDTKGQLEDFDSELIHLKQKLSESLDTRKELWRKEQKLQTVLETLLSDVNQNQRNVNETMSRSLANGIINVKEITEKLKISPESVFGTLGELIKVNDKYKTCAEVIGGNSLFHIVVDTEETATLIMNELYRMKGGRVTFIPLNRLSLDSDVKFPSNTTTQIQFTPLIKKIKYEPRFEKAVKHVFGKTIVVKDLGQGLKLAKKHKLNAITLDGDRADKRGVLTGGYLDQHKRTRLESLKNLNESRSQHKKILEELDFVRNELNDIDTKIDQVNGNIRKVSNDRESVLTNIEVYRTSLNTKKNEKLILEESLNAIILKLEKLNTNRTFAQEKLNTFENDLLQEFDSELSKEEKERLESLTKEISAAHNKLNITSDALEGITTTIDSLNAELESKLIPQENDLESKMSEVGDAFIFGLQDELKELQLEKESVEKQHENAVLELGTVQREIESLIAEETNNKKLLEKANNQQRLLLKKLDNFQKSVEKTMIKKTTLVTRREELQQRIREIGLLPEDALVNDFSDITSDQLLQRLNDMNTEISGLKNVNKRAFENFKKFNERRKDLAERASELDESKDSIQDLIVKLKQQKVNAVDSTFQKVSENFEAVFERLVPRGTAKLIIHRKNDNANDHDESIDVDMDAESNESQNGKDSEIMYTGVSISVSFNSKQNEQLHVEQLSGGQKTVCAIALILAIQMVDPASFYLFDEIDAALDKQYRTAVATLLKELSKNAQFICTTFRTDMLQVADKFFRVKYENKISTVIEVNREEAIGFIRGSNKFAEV
Chain of Smc1-Smc3-Scc1 trimer (S. cerevisiae cohesin) (Q12158 whole entry, chain 3 of 3): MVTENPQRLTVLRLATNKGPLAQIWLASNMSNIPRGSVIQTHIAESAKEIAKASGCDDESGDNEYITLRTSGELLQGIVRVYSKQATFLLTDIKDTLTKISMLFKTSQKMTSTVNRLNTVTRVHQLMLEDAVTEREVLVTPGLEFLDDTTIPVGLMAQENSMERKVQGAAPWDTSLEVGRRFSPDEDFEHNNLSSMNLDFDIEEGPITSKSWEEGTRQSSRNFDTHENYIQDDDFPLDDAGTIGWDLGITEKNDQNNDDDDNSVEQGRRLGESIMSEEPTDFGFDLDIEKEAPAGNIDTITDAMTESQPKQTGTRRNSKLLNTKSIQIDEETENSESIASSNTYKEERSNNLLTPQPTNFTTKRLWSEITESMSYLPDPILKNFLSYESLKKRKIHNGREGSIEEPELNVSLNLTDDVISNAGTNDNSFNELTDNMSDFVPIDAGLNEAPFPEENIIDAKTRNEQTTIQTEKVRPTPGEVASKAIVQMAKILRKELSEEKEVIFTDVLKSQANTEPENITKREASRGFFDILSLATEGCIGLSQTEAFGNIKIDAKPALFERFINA

binding result [1] | binding result [2] | Binder | further results
binds | – | B1 | –
– | binds | B2 | –
– | binds | B3 | –
binds | – | B4 | –
– | binds | B5 | binding result [3]: binds
– | – | B6 | binding result [4]: binds
